Measured values as given in article PMC10823258 (Proceedings of the National Academy of Sciences of the …, 2024).
Like-named read-outs stand apart in the source and are kept apart here.

Assays:
[1] = molecular target: T1, wheat eIF4E (Triticum aestivum, UniProt P29557); assay: isothermal titration calorimetry; format: binding
T1 sequence (P29557 39-215): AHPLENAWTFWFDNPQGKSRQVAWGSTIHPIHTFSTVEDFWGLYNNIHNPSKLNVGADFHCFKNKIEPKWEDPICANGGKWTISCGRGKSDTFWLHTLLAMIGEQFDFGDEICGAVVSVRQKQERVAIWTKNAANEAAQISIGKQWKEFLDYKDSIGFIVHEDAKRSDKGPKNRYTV

[2] = molecular target: T2, human eIF4E (human, UniProt P06730); assay: ITC
[3] = molecular target: T2, human eIF4E; assay: ITC; remark: listed apart in the source
[4] = molecular target: T2, human eIF4E; assay: ITC; remark: listed apart in the source
[5] = molecular target: GB1-human eIF4E (human, UniProt P06730); assay: ITC
[6] = molecular target: T2, human eIF4E; assay: ITC; remark: listed apart in the source

Molecule `C[n+]1cn([C@@H]2O[C@H](COP(=O)(O)OP(=O)(O)OP(=O)(O)O)[C@@H](O)[C@H]2O)c2nc(N)[nH]c(=O)c21` [m7GTP] has a Kd [1] of 1800 ± 800 nM.

B1: SCV PTE G18C (structured_RNA)
RNA: GGUUGCUCGACUGUGAGCGGACCUACCCACUGUGGAAACACCACAGGAACUUCCAACCUUCGGGUGGCGAGGUAGGGCAGAAGAGUGACC
B1: no binding [2].

B2: SCV PTE G18U (structured_RNA)
RNA: GGUUGCUCGACUGUGAGUGGACCUACCCACUGUGGAAACACCACAGGAACUUCCAACCUUCGGGUGGCGAGGUAGGGCAGAAGAGUGACC
B2: no binding [2].

B3: SCV PTE G18A (structured_RNA)
RNA: GGUUGCUCGACUGUGAGAGGACCUACCCACUGUGGAAACACCACAGGAACUUCCAACCUUCGGGUGGCGAGGUAGGGCAGAAGAGUGACC
Molecule B3 has a Kd [3] of 6200 ± 900 nM.

GGGGUCUCUCUUGUCGAGAGGCAAGGAACCC (ssRNA, 5' cap (m7G)) [5' capped RNA] was tested, and the Kd [4] was 76 ± 3 nM.

B4: SCV PTE WT (structured_RNA)
RNA: GGUUGCUCGACUGUGAGGGGACCUACCCACUGUGCUGCCACACAGGAACUUCCAACCUUCGGGUGGCGAGGUAGGGCAGAAGAGUGACC
In the case of B4, the Kd [5] is reported as 900 ± 236 nM and the Kd [6] is reported as 576 ± 56 nM.
